In the DeepSol protein solubility set:

Test: soluble on expression in E. coli; label from the status in PepcDB or PDB records

Sequence | soluble on expression in E. coli
MTGQTVECIRSAGVVGAGGAGLPTHIKADASVDTVLVNGASCEPLLMSDPYLIQAHPDIVIRGLLAVMDCTGARRGIICLKGKHAAAMAAVRGAVTREGSGRLEVFELRDFYPAGDEHVLVHEVLGRTVPQGGIPLQIGAVVSNVETLYNVALAMEGAPVTHRYVTVSGEVKRHMVVKVPVGTLVSDVLTFAGGPAITEYKVVDGGPMMGRVLPHTGRPVTKTTSGLLVLPPDHTVVARKIMDPEKVRRITTSICCQCSHCTDLCPRNLLGHSLHPHRLMRVLEGQMHAGTVAREALLCSECGLCEKFACPMMVSPREINAQIKQVLRREGVRWESTGEEPVPHPFRKSRYVATGRLLRRLDLVQYDTHPGYAGEYTPHMVRIPLAQHIGAPAVCVVAPGDTVRTGDLIGEIPEKSMGARVHASISGRVESVEDGMVTIKAC | not soluble
MQFLQKFPPFNQMENAHLAYLVEQCQLRFYAADESIIKPGDGPVEHFYIVKQGRIVGERPHSAKRGTETTFEITTGECFPLAALLGERATRTEHLAAEDTFCLQLNKQAFIKLFALSTTFRDFALRGVSSLLDQVNQQVQQRAAETLGTQYSLNTRLGELAMRHPVMCSPDMPMRDAVKLMHEQQVGSIVIVDEQQAPLGIFTLRDLREAVADVNADFSAPVKNTMSPSPFHLSPDASAFDAAIAMTGRHIAHVCLVRDGRLCGVVSERDLFSLQRVDLVHLARTIRNAPRIEALAGLRGDIVQLVDRMLAHGASSTQITQIITLLNDHTVCRVIELTLAEKGDPGVPFSWLCFGSEGRREQTLHTDQDNGILFEASDATEAEQIRTLLLPIAERINQSLAQCGFTLCKGNIMAGNPDLCLSRLEWSRRFSAFIREATPENLLASSIYFDLRVVWGDESGGGQLRRGILDQVADNRLFQRMMAENALRQRPPVGRFKDFVLARKGSEKDTLDLKTEGLTPFVDGARLLALANGIGVNNTQERLRQLVEREVIDPLDGAAYEEAYHFIQQTRMQQHQLQSRQNLAYSNRIDPDTLNHLDRRILRESFRQAQRLQMSLTMRYQL | not soluble
MARASSTKARKQRHDPLLKDLDAAQGTLKKINKKKLAQNDAANHDAANEEDGYIDSKASRKILQLAKEQQDEIEGEELAESERNKQFEARFTTMSYDDEDEDEDEDEEAFGEDISDFEPEGDYKEEEEIVEIDEEDAAMFEQYFKKSDDFNSLSGSYNLADKIMASIREKESQVEDMQDDEPLANEQNTSRGNISSGLKSGEGVALPEKVIKAYTTVGSILKTWTHGKLPKLFKVIPSLRNWQDVIYVTNPEEWSPHVVYEATKLFVSNLTAKESQKFINLILLERFRDNIETSEDHSLNYHIYRAVKKSLYKPSAFFKGFLFPLVETGCNVREATIAGSVLAKVSVPALHSSAALSYLLRLPFSPPTTVFIKILLDKKYALPYQTVDDCVYYFMRFRILDDGSNGEDATRVLPVIWHKAFLTFAQRYKNDITQDQRDFLLETVRQRGHKDIGPEIRRELLAGASREFVDPQEANDDLMIDVN | soluble
MGSDKIHHHHHHMNICDLAPAYIRAISPYQPGKPISELAREMGMDEQSIIKLASNENPLGTSPMALNAMSKALDEVSLYPDGSGFELKAALSERYGVTSDQIVLGNGSNDVLELAARVFLKPGASTVYSQHAFAVYPLVTKAVGGIGISVPARNYGHDLDAMLDAVAPETRVVFIANPNNPTGTLLPADDVLRFLERVSPDVLVVLDEAYNEYLPPALKGDSIAWLKQFPNLLITRTFSKAYGMAGVRVGFGLGHPDVAGLMNRVRQPFNVNNIGLAGAVAALQDEEFVKRSYALNQAGMLQIVTGLRQMGIEYIPSYGNFLSFRVPGNVKAINESLLKQGVIVRPISIYEMPEHLRVTVGLESENEKFLKSLAIALETTEGAAADTIPEMAVSFPKVASGGTA | not soluble
RSRLVQFQKNTDEPMGITLKMNELNHCIVARIMHGGMIHRQGTLHVGDEIREINGISVANQTVEQLQKMLREMRGSITFKIVPSYREF | soluble
MGSDKIHHHHHHMLLILDEYFKEHPIKLRIVDGLYTSGISIRNGRFFTNDVEISVSEIASAFNVNRKTVYETIKLVESNDSLRRVMSSIKPMADIADVALLTGNQIITAYTTLGHFPYVFKEIFNTISKYGCYIREVFSRNMSQEESFIRIIFYRPIPDRIIGQIRKIDGVKSLEVRVNMDTDQILCNNCDIKICPTKYISDVEKEELGDL | not soluble
MAHHHHHHMKTLKEALTNVLSSLNIAEKKEILNVLYHILQKIIENPSRAKFRSLKKDNKTFVNKLLQFKESDELLRSLGFEEETEIWFFPVKNDHKLSSNLTEIRAFIKEHVNTIYNNQDSIFETGTASSSAHLPTDEKNVTENTSNLGDTCNNSEGLTLGGLSKRRLEKERLELLSQKENTIKLLQEHADKWIIQITGAENTLYSNETFQMQFKFTEKYPIESPEVIFLGQPPIHPHIYSNGHICLSILYDHWSPVLSVNSICLSIISMLSSCKKKRKPLDDILYCSTGPRISPKNMKWMFHDDKV | not soluble
DLKQREQALEDSRQRYQTLLQAAPDPIFVADAETGEIVEANAAAEELRGQPRDDIIGRHQTELHPEEAGGLYEDVFEQAFDDASTITELPDGTQPELATPDGETVPIEISAAAVSLPDGPVLFGVFRDVS | not soluble
MVELFGAVLLLFGLSDLLFRFLGLGAYAHGSRREPKVALTFDDGPSERTEALLALLARHGVKATFFLTGEKARARPDLVEAIKRAGHQVEDHGEWHRPLWLFLPWVEWRHMAQNPGRYYRPPYGLHTPFTRLFARLLGKRVVLWDLESKDWLNLPPEELAERLLFYLRPGSIVLFHDGPERTLRLLGAGPAGDAPPGVPAHHPGRPRPFAPHPEARPHPGPPGV | soluble
MGSDKIHHHHHHMAIEITTAEKRLLQRVSIPPRPETLLTVSREAKKSEPDVNVIAESISADMSIAAAVLQVVNSAAYRRAREVDSIQQAVMTLGFRRVFPIVRAVALKSALTSDYDLSEFWRYNEWVAGACVMIAEAIGRPELRDHAYMLGLFQSSGIPVMLAEFDDYADLLNAAESTPWQQVQAKELELFQTSHTTIGALLAQQWKLPKIVVEVIYYLFEDSSIFNHSSELDNLTLDLLGILKISRYAIDLRTRSLAGEEEWQYVQDGVLEHFQIDEFKVDEMLQIVHEELFDTEA | not soluble
MCMVMREYNKERLRKAIELWYREEGVRIIKDRVEHYLKFYPVKPRSIKVKEQKRRWGSCTYYNDLLFNWRCIMAPLKVVDYIVVHEMTHMVHKDHSKNYWNFVSKIIPNYKEQKMWLKENGIIMDIMAGDPLEHHHHHH | soluble
MSLRRFKFQYKETIVTILTENEEFYKTAVKAILEARSEIEDYILHNPDFFTSYEPIECSGGEIINRMCNAAKIAGVGPMAAVAGTIAAYAVEKMIDAGAKLAVVDNGGDIVIHSDRELLVGIYPSKLAFKVPPVDYLAICTSSGKIGHSVSFGKADAATVVARDASVADALATALGNLIGDFGKKELEKTVSEFYGKYSDFVEGILVVKDELVALAGNLPSLAFAESKEDLITKGEGHHHHHH | soluble
MELWRQCTHWLIQCRVLPPSHRVTWEGAQVCELAQALRDGVLLCQLLNNLLPQAINLREVNLRPQMSQFLCLKNIRTFLSTCCEKFGLKRSELFEAFDLFDVQDFGKVIYTLSALSWTPIAQNKGIMPFPTEDSALNDEDIYSGLSDQIDDTAEEDEDLYDCVENEEAEGDEIYEDLMRLESVPTPPKMTEYDKRCCCLREIQQTEEKYTDTLGSIQQHFMKPLQRFLKPQDMETIFVNIEELFSVHTHFLKELKDALAGPGATTLYQVFIKYKERFLVYGRYCSQVESASKHLDQVATAREDVQMKLEECSQRANNGRFTLRDLLMVPMQRVLKYHLLLQELVKHTQDATEKENLRLALDAMRDLAQCVNEVKRDNETLRQITNFQLSIENLDQSLANYGRPKIDGELKITSVERRSKTDRYAFLLDKALLICKRRGDSYDLKASVNLHSFQVRDDSSGERDNKKWSHMFLLIEDQGAQGYELFFKTRELKKKWMEQFEMAISNIYPENATANGHDFQMFSFEETTSCKACQMLLRGTFYQGYRCYRCRAPAHKECLGRVPPCGRHGQDFAGTMKKDKLHRRAQDKKRNELGLPKMEVFQEYYGIPPPPGAFGPFLRLNPGDIVELTKAEAEHNWWEGRNTATNEVGWFPCNRVHPYVHGPPQDLSVHLWYAGPMERAGAEGILTNRSDGTYLVRQRVKDTAEFAISIKYNVEVKHIKIMTSEGLYRITEKKAFRGLLELVEFYQQNSLKDCFKSLDTTLQFPYKEPERRAISKPPAGSTKYFGTAKARYDFCARDRSELSLKEGDIIKILNKKGQQGWWRGEIYGRIGWFPSNYVEEDYSEYC | soluble
GPGSMNNDKSEFYITGMTAGKLPMNNQQMVGYQRRMKIQVNKLMTEKQMTRMDAAAQGNTNTFEPFARERRRATAHVEQYPNIGHSPSGDDATTPKDVIPMLLIKKQLREFGRGRLRMPFTDTLSANVEKFTTPVGQTQVTGQPEILVTEKKLSAEGI | not soluble
MGSDKIHHHHHHMKYRTVFDIIGPVMIGPSSSHTAGAARIGRVARTLFGQQPERCDIYFYGSFAETYKGHGTDVAIVGGILDFDTFDPRIPRSLQLAKEKGVRVYFHEEEAITDHPNTAKVVLQKGEDQLEVVGVSIGGGKIEIVELNGFHLKLSGNHPAILVVHTDRFGVIASVSNMLAKHEINIGHMEVSRKEKGKEALMVIEVDQNVDDLLLQELERLPNIVTVTKIHD | not soluble
DYSQKLQNLISEQLVGCGFNEILNNSLTAASYYEGSETYKNENLVYLMNPLSNDLNVMRQTLLFGGLESIQHNANRKNADLKFFEFGNCYFYNAEKKNPEKVLAAYAEEYHLGLWVTGKRVSNSWAHPDENSSVYELKAYVLNIFTRLGLNFGNVVFGNLTNDIYSTAISVHTRGGKLLATFGIISKKIQKAFDIDNEVYYAEINWKELM | not soluble
MRNERAAKLVVIGGGTGLPVLLRGLKQHELDLTAIVTVADDGGSSGRLRDELHIPPPGDVRNVLAALSDVEPLIVELFQHRFQNGNGLSGHSLGNLILAALTSITGDFVKAIREMSKVLNVRGQVLPAANKSVVLHAEMEDGSIVSGESKIPSAGKKIKRVFLTPEDIEPLPETVDAIRRADLIVIGPGSLYTSILPNLLVPKIGQEVCKAKAKKVYICNIMTQAGETPHYTVSDHVEALHAHLGGPFLDAVIINSGAIPEAIRRRYEAERAEPVRDDSSGLSLQVIRDDIVTYEDGVIRHNTAKVAALLLGLLPHR | not soluble
MQAKIAASNTGELDALQQLGFSLVEGEVDLALPVNNASDSGAVVAQETDIPALRQLASAAFAQSRFRAPWYAPDASSRFYAQWIENAVRGTFDHQCLILRAASGDIRGYVSLRELNATDARIGLLAGRGAGAELMQTALNWAYARGKTTLRVATQMGNTAALKRYIQSGANVESTAYWLYR | not soluble
MKKIAIFGSAFNPPSLGHKSVIESLSHFDLVLLEPSIAHAWGKNMLDYPIRCKLVDAFIKDMGLSNVQRSDLEQALYQPGQSVTTYALLEKIQEIYPTADITFVIGPDNFFKFAKFYKAEEITERWTVMACPEKVKIRSTDIRNALIEGKDISTYTTPTVSELLLNEGLYRETLSGK | soluble
MFKPELLSPAGTLKNMRYAFAYGADAVYAGQPRYSLRVRNNDFKMENLATGIEEAHALGKKLYVVSNIAPHNAKLKTYIKDMEPVVAMKPDALIMSDPGLIMMVREAFPEQVVHLSVQANAINWASVKFWQTQGIKRVILSRELSLDEIEEIRQRCPDIELEVFVHGALCMAYSGRCLLSGYINKRDPNQGTCTNACRWKYDVHEAQQTDSGDIIATPNAVQIETPTTLGAGAPTEQIFLLQEANRPGEYMPAFEDEHGTYIMNSKDLRAIQHVERLAKMGIDSLKIEGRTKSFYYVARTAQLYRQAIDDAASGKSFDRSLMNQLEGLAHRGYTEGFLRRHVHDEYQNYDYGYSVSDTQQFVGELTGKRNLAGLAEIEVKNKFSVGDSVELMTPQGNISLTIEQLENRKAEAVEAGLGSGHSVYLPVPKEVDLNHGILLRNLPQGQDTRNPHEAG | not soluble
